# In article PMC11879619:
# Where no end group is shown, it is not given here.
# Experiments:
# [1] = target: He-PDFR-B, short splice variant of the pigment-dispersing factor receptor of Hypsibius exemplaris (Hypsibius exemplaris)
# [2] = target: He-PDFR-A, long splice variant of the pigment-dispersing factor receptor of Hypsibius exemplaris (Hypsibius exemplaris)
"EC50 of the cAMP response (BRET ratio change of the Epac-L sensor) of HEK293T cells transfected with He-pdfr-B, synthetic peptide at 10^-11 to 10^-5 M [1]","EC50 of the cAMP response (BRET ratio change of the Epac-L sensor) of HEK293T cells transfected with He-pdfr-A, synthetic peptide at 10^-11 to 10^-5 M [2]",Binder
21 nM,56 nM,"NAEVLNSLIGLPRLLKDK-NH2 [He-PDF-1, pigment-dispersing factor 1 of Hypsibius exemplaris (synthetic mature peptide)]"
11 nM,34 nM,"NSEILNTIIGLPNKLRQR-NH2 [He-PDF-2, pigment-dispersing factor 2 of Hypsibius exemplaris (synthetic mature peptide)]"
1.6 nM,18 nM,"NSEILNTLIGLPNKLKQR-NH2 [He-PDF-3, pigment-dispersing factor 3 of Hypsibius exemplaris (synthetic mature peptide)]"
